The target in assay [1] is Acanthamoeba castellanii actin (Acanthamoeba castellanii).
For assay [2] the target is unchanged. The source holds these as a separate data set.

In assay [1], “Fhod-B (C-terminal half: FH1 and FH2 domains and the Fhod-B tail) (domain or fragment)” had a run length, mean of three independent samples, TIRF microscopy with profilin of 24.1 μm. For the same substance, the median run length (length of dim filaments after 5 min), TIRF microscopy with profilin; said to be an underestimate in assay [2] is 24 μm.

The record behind these values is paper PMC10797183.
